Measured values from PMC8437784 (The Journal of Biological Chemistry, 2020).

B3: Recombinant N-terminal His6-tagged TRF1 (from human) (natural protein, UniProt P54274 1-439, looked up)
chain: MAEDVSSAAPSPRGCADGRDADPTEEQMAETERNDEEQFECQELLECQVQVGAPEEEEEEEEDAGLVAEAEAVAAGWMLDFLCLSLCRAFRDGRSEDFRRTRNSAEAIIHGLSSLTACQLRTIYICQFLTRIAAGKTLDAQFENDERITPLESALMIWGSIEKEHDKLHEEIQNLIKIQAIAVCMENGNFKEAEEVFERIFGDPNSHMPFKSKLLMIISQKDTFHSFFQHFSYNHMMEKIKSYVNYVLSEKSSTFLMKAAAKVVESKRTRTITSQDKPSGNDVEMETEANLDTRKSVSDKQSAVTESSEGTVSLLRSHKNLFLSKLQHGTQQQDLNKKERRVGTPQSTKKKKESRRATESRIPVSKSQPVTPEKHRARKRQAWLWEEDKNLRSGVRKYGEGNWSKILLHYKFNNRTSVMLKDRWRTMKKLKLISSDSED

Assays:
[1] = molecular target: TRF1 (human, UniProt P54274 1-439); assay: EMSA
[2] = molecular target: T1, TIN2L (UniProt Q9BSI4 1-451); assay: EMSA
T1 sequence: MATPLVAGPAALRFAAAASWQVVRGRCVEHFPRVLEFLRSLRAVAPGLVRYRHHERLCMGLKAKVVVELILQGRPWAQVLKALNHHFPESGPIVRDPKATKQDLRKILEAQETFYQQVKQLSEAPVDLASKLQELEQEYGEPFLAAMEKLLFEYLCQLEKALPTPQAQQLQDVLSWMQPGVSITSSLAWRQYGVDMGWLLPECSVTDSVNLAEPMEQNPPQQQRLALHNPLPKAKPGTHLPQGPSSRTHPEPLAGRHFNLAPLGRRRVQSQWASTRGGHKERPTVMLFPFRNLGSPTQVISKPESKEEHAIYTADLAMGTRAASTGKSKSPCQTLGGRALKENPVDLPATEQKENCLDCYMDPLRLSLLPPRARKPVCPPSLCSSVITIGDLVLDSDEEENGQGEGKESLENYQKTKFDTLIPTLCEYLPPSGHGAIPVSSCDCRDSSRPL

[3] = molecular target: T2, TIN2S (UniProt Q9BSI4-2 1-354); assay: EMSA
T2 sequence: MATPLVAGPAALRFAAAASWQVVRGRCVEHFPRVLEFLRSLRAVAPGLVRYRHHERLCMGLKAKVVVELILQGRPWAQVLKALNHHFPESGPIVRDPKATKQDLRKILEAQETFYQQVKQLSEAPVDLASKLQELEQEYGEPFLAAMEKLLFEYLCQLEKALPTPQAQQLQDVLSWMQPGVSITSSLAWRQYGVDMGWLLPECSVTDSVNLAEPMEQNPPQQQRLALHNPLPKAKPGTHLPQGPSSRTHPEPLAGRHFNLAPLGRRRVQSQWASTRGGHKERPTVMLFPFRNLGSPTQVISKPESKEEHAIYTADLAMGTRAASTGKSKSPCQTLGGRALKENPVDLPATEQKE

[4] = molecular target: TRF1;TIN2L (human;human?, UniProt P54274;Q9BSI4 1-439;1-451, |); assay: EMSA
[5] = molecular target: TRF1;TIN2S (human;human?, UniProt P54274;Q9BSI4-2 1-439;1-354, |); assay: EMSA
[6] = molecular target: B3; assay: DNA tightrope assay
[7] = molecular target: T3, Recombinant N-terminal His6-tagged TRF1 (from human) (human), P54274; assay: AFM volume analysis; settings: remark: other sources report otherwise
T3 chain: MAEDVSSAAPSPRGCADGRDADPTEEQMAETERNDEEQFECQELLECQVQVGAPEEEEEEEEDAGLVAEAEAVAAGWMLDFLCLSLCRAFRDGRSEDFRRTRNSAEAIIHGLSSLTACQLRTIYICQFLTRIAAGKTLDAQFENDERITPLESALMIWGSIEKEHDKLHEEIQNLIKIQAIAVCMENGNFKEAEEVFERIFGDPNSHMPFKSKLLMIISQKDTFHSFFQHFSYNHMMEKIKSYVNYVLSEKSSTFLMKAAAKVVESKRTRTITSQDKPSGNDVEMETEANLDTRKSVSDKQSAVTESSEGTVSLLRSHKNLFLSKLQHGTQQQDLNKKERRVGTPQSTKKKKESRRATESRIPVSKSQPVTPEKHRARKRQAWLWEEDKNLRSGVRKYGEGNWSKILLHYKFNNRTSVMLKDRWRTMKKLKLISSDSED

[8] = molecular target: T4, N-terminal HA-tagged TIN2L (HA-TIN2L, 1-451 aa) (human, UniProt Q9BSI4-1 1-451); assay: DNA tightrope assay
T4 sequence (looked up): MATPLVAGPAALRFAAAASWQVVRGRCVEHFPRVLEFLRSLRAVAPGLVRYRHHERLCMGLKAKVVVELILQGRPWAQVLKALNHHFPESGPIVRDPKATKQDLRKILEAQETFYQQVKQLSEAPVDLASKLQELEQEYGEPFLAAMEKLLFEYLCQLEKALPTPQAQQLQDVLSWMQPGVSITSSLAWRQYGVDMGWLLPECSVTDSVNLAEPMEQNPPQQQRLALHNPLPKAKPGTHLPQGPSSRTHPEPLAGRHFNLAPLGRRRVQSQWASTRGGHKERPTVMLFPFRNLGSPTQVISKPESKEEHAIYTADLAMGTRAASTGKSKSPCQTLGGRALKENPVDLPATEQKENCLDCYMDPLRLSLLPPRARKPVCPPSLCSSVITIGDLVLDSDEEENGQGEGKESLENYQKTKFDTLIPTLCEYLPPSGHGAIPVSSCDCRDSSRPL

B1: 48 bp telomeric dsDNA, 3 TTAGGG (dsDNA)
DNA 1: TTAGGGTTAGGGTTAGGGATGTCCAGCAAGCCAGAATTCGGCAGCGTA
DNA 2: TACGCTGCCGAATTCTGGCTTGCTGGACATCCCTAACCCTAACCCTAA
Q: Does B1 bind [1]?
A: binds

Q: Does B1 bind [2]?
A: no binding

Q: Does B1 bind [3]?
A: no binding

Q: Does B1 bind [4]?
A: binds

Q: Does B1 bind [5]?
A: binds

B2: N-terminal HA-tagged TIN2S (HA-TIN2S, 1-354 aa) (natural protein, human, UniProt Q9BSI4-2 1-354, looked up)
chain: MATPLVAGPAALRFAAAASWQVVRGRCVEHFPRVLEFLRSLRAVAPGLVRYRHHERLCMGLKAKVVVELILQGRPWAQVLKALNHHFPESGPIVRDPKATKQDLRKILEAQETFYQQVKQLSEAPVDLASKLQELEQEYGEPFLAAMEKLLFEYLCQLEKALPTPQAQQLQDVLSWMQPGVSITSSLAWRQYGVDMGWLLPECSVTDSVNLAEPMEQNPPQQQRLALHNPLPKAKPGTHLPQGPSSRTHPEPLAGRHFNLAPLGRRRVQSQWASTRGGHKERPTVMLFPFRNLGSPTQVISKPESKEEHAIYTADLAMGTRAASTGKSKSPCQTLGGRALKENPVDLPATEQKE
Q: Does B2 bind [6]?
A: binds

Q: Which results are given for B3?
A: stoichiometry N [7]: 2; binding result [8]: binds
